Data published in US20210107996A1 (PROMAB BIOTECHNOLOGIES, published 2021).

Target: T1, recombinant PLAP extracellular domain protein (Sino Biological) (human, UniProt P05187 23-506)
T1 construct: Bought protein; also called purified recombinant PLAP protein; PLAP antigen
Experiment: BLI (Blitz ForteBio); antibody captured on anti-mouse-capture biosensors, PLAP antigen in solution
Protocol: The binding of PLAP antibody with recombinant PLAP extracellular domain protein from Sino Biological was performed using Blitz ForteBio system as described. In brief, anti-mouse-capture (AMC) biosensors were soaked in kinetics buffer (PBS, 0.1% Tween, 0.05% BSA) for 10 min and then with mouse anti-PLAP antibody at 0.1 mg/mL in same buffer for 30 min. After washing, biosensors were used to bind the PLAP antigen at different concentrations. The Kd was detected with Blitz system software.

T1 sequence (P05187 23-506): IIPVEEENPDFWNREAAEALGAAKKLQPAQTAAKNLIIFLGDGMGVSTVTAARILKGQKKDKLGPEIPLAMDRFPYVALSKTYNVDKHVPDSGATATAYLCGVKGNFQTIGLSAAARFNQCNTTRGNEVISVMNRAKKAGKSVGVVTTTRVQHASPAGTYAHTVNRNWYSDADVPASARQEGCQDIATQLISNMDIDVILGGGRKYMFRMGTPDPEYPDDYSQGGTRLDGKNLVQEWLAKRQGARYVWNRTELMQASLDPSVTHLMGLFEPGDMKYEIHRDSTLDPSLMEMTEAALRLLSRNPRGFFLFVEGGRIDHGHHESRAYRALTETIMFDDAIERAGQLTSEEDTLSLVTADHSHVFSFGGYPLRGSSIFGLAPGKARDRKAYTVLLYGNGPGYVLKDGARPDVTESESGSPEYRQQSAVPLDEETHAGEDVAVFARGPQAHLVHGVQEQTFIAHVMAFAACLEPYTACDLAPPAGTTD

B1: mouse monoclonal PLAP antibody (clone H17E2) (antibody, V domains shown)
VH: QVQLKESGPGLVAPSQSLSITCTVSGFSLTSYGVSWVRQPPRKGLEWLGVIWEDGSTNYHSALISRLSINKDNSKSQVFLKLNSLQTDDTATYYCAKPHYGSSYVGAMEYWGQGTSVTVSS
VL: DIQMTQSPASLTASVGETVTITCRASENIYSYVAWYQQKQGKSPQFLVYNAKSLAEGVPSRFSGSGSGTQFSLKINSLQPEDFGNYYCQHHYVSPWTFGGGTKLEIR
notes: Bought whole mouse monoclonal antibody (Thermo Fisher / Ximbio); also called PLAP antibody H17E2; mouse anti-PLAP antibody
Kd: 3.2 nM
